In patent CN115819563A one finds OD450nm data, which are given here for one molecule.

Several values for one entry are separate records, joined by “and”; a condition that tells them apart may be missing. Equal values may be shown once.

The target of the experiment is 猪伪狂犬病毒gE蛋白 (on inactivated pseudorabies virus) (pseudorabies virus (PRV)).

B1: 抗猪伪狂犬病毒gE蛋白单克隆抗体 (antibody, V domains shown)
VH: EVQLQESAHELVKPGASVKIPCKASGYTFTDYNMHWVKQSLRKSLEWIGDIHPNNGGTIYNQKCMGKATLTVDKSSSTADMELRSLTSDDTAVYSCAREGIHCYGSCYVRYDLDYCRQGTTLTVSS
VL: DTVLTQSSASLAVSLCQRATISCKASQSVDHDGDSYMNWSQQRPSQSSTLLIYAASNLESGIPARFSCSGSRTDFTLNIHPVEEEDAATYYCQQT
For B1, the OD450nm is 2.59 OD450nm and 2.57 OD450nm and 2.62 OD450nm.
